From patent US20240116997A1

Key:
[1] = molecular target: C086 (SEQ ID NO: 30; E6K, V11I, C38A, K53A, T63A, C76A, C127A) (human) (UniProt Q14116); test: cell-based or functional assay
[2] = molecular target: C152 (V11I, S36A, C38A, K53A, C76A, C127A) (human) (UniProt Q14116); test: cell-based or functional assay
[3] = molecular target: IL-18 polypeptide SEQ ID NO: 9 (E6K, C38A, K53A, C68A, D98C) (human) (UniProt Q14116); test: cell-based or functional assay
[4] = molecular target: C149 (V11I, E31A, C38A, K53A, C76A, C127A) (human) (UniProt Q14116); test: cell-based or functional assay
[5] = molecular target: IL-18 polypeptide SEQ ID NO: 46 (E06K, K53A, S55A, M51G) (human) (UniProt Q14116); test: cell-based or functional assay
[6] = molecular target: C147 (V11I, C38A, K53A, D54A, C76A, C127A) (human) (UniProt Q14116); test: cell-based or functional assay
[7] = molecular target: C168 (V11I, C38A, C76A, S105K, C127A) (human) (UniProt Q14116); test: cell-based or functional assay
[8] = molecular target: IL-18 polypeptide SEQ ID NO: 55 (K53A, T63A, C38S, C68S, C76S, C127S, K70C) (human) (UniProt Q14116); test: cell-based or functional assay
[9] = molecular target: IL-18 polypeptide SEQ ID NO: 54 (E06K, K53A, C38S, C68S, C76S, C127S, K70C) (human) (UniProt Q14116); test: cell-based or functional assay
[10] = molecular target: IL-18 polypeptide SEQ ID NO: 40 (E06K, S55A) (human) (UniProt Q14116); test: cell-based or functional assay
[11] = molecular target: IL-18 polypeptide SEQ ID NO: 42 (E06K, K53A, S55A, T63A) (human) (UniProt Q14116); test: cell-based or functional assay
[12] = molecular target: C161 (K8R, V11I, C38A, C76A, Q103E, C127A) (human) (UniProt Q14116); test: cell-based or functional assay
[13] = molecular target: C144 (V11I, C38A, K53A, T63A, C76A, C127A) (human) (UniProt Q14116); test: cell-based or functional assay
[14] = molecular target: C163 (V11I, C38A, C76A, Q103K, C127A) (human) (UniProt Q14116); test: cell-based or functional assay
[15] = molecular target: IL-18 polypeptide SEQ ID NO: 53 (K53A, T63A) (human) (UniProt Q14116); test: cell-based or functional assay
[16] = molecular target: C151 (V11I, D35A, C38A, K53A, C76A, C127A) (human) (UniProt Q14116); test: cell-based or functional assay
[17] = molecular target: C158 (V11I, C38A, K53A, C76A, G108A, C127A) (human) (UniProt Q14116); test: cell-based or functional assay
[18] = molecular target: C166 (V11I, C38A, S55T, C76A, C127A) (human) (UniProt Q14116); test: cell-based or functional assay
[19] = molecular target: IL-18 polypeptide SEQ ID NO: 39 (E06K, K53A) (human) (UniProt Q14116); test: cell-based or functional assay
[20] = molecular target: C153 (V11I, D37A, C38A, K53A, C76A, C127A) (human) (UniProt Q14116); test: cell-based or functional assay
[21] = molecular target: C145 (V11I, C38A, K53A, S55A, C76A, C127A) (human) (UniProt Q14116); test: cell-based or functional assay
[22] = molecular target: IL-18 polypeptide SEQ ID NO: 36 (K53A) (human) (UniProt Q14116); test: cell-based or functional assay
[23] = molecular target: C157 (V11I, C38A, K53A, C76A, C127A, D132A) (human) (UniProt Q14116); test: cell-based or functional assay
[24] = molecular target: C160 (V11I, C38A, K53A, C76A, D110A, C127A) (human) (UniProt Q14116); test: cell-based or functional assay
[25] = molecular target: IL-18 polypeptide SEQ ID NO: 34 (E06K, K53A, S55A) (human) (UniProt Q14116); test: cell-based or functional assay
[26] = molecular target: IL-18 polypeptide SEQ ID NO: 50 (E06K, K53A, T63A) (human) (UniProt Q14116); test: cell-based or functional assay
[27] = molecular target: IL-18 polypeptide SEQ ID NO: 60 (E6K, C38Q, K53A) (human) (UniProt Q14116); test: cell-based or functional assay
[28] = molecular target: IL-18 polypeptide SEQ ID NO: 38 (E06K) (human) (UniProt Q14116); test: cell-based or functional assay
[29] = molecular target: IL-18 polypeptide SEQ ID NO: 59 (E6K, C38A, K53A) (human) (UniProt Q14116); test: cell-based or functional assay
[30] = molecular target: IL-18 polypeptide SEQ ID NO: 47 (C38S, C68S, C76S, C127S) (human) (UniProt Q14116); test: cell-based or functional assay
[31] = molecular target: IL-18 polypeptide SEQ ID NO: 57 (E6K, C38S, K53A) (human) (UniProt Q14116); test: cell-based or functional assay
[32] = molecular target: C159 (V11I, C38A, K53A, C76A, H109A, C127A) (human) (UniProt Q14116); test: cell-based or functional assay
[33] = molecular target: IL-18 polypeptide SEQ ID NO: 6 (E6K, V11I, C38A, K53A, T63A, C68A, C76A, D98C, C127A) (human) (UniProt Q14116); test: cell-based or functional assay
[34] = molecular target: IL-18 polypeptide SEQ ID NO: 5 (E6K, V11I, C38A, K53A, T63A, C68A, C76A, M86C, C127A) (human) (UniProt Q14116); test: cell-based or functional assay
[35] = molecular target: IL-18 WT (native sequence, SEQ ID NO: 1) (human) (UniProt Q14116)

Sequence of IL-18 polypeptide SEQ ID NO: 9 (E6K, C38A, K53A, C68A, D98C) (human) (Q14116 other isoform, or with tags, fused parts or gaps C38A K53A C68A D98C C38A K53A C68A D98C): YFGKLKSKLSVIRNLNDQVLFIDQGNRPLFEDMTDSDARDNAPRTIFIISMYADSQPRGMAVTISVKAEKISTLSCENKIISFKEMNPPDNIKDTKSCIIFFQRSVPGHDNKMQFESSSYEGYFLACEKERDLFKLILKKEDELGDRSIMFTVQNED
Sequence of IL-18 polypeptide SEQ ID NO: 42 (E06K, K53A, S55A, T63A) (human) (Q14116 37-193 E42K/K89A/S91A/T99A): as the sequence (Q14116 other isoform, or with tags, fused parts or gaps C38A K53A C68A D98C C38A K53A C68A D98C) above, with A38C, S55A, T63A, A68C, C98D counted along it
Sequence of IL-18 polypeptide SEQ ID NO: 34 (E06K, K53A, S55A) (human) (Q14116 37-193 E42K/K89A/S91A): as the sequence (Q14116 other isoform, or with tags, fused parts or gaps C38A K53A C68A D98C C38A K53A C68A D98C) above, with A38C, S55A, A68C, C98D counted along it
Sequence of C152 (V11I, S36A, C38A, K53A, C76A, C127A) (human) (Q14116 37-193 V47I/S72A/C74A/K89A/C112A/C163A): as the sequence (Q14116 other isoform, or with tags, fused parts or gaps C38A K53A C68A D98C C38A K53A C68A D98C) above, with K6E, V11I, S36A, A68C, C76A, C98D, C127A counted along it
Sequence of C147 (V11I, C38A, K53A, D54A, C76A, C127A) (human) (Q14116 37-193 V47I/C74A/K89A/D90A/C112A/C163A): as the sequence (Q14116 other isoform, or with tags, fused parts or gaps C38A K53A C68A D98C C38A K53A C68A D98C) above, with K6E, V11I, D54A, A68C, C76A, C98D, C127A counted along it
Sequence of C149 (V11I, E31A, C38A, K53A, C76A, C127A) (human) (Q14116 37-193 V47I/E67A/C74A/K89A/C112A/C163A): as the sequence (Q14116 other isoform, or with tags, fused parts or gaps C38A K53A C68A D98C C38A K53A C68A D98C) above, with K6E, V11I, E31A, A68C, C76A, C98D, C127A counted along it
Sequence of C153 (V11I, D37A, C38A, K53A, C76A, C127A) (human) (Q14116 37-193 V47I/D73A/C74A/K89A/C112A/C163A): as the sequence (Q14116 other isoform, or with tags, fused parts or gaps C38A K53A C68A D98C C38A K53A C68A D98C) above, with K6E, V11I, D37A, A68C, C76A, C98D, C127A counted along it
Sequence of C160 (V11I, C38A, K53A, C76A, D110A, C127A) (human) (Q14116 37-193 V47I/C74A/K89A/C112A/D146A/C163A): as the sequence (Q14116 other isoform, or with tags, fused parts or gaps C38A K53A C68A D98C C38A K53A C68A D98C) above, with K6E, V11I, A68C, C76A, C98D, D110A, C127A counted along it
Sequence of C166 (V11I, C38A, S55T, C76A, C127A) (human) (Q14116 37-193 V47I/C74A/S91T/C112A/C163A): as the sequence (Q14116 other isoform, or with tags, fused parts or gaps C38A K53A C68A D98C C38A K53A C68A D98C) above, with K6E, V11I, A53K, S55T, A68C, C76A, C98D, C127A counted along it
Sequence of IL-18 polypeptide SEQ ID NO: 54 (E06K, K53A, C38S, C68S, C76S, C127S, K70C) (human) (Q14116 37-193 E42K/C74S/K89A/C104S/K106C/C112S/C163S): as the sequence (Q14116 other isoform, or with tags, fused parts or gaps C38A K53A C68A D98C C38A K53A C68A D98C) above, with A38S, A68S, K70C, C76S, C98D, C127S counted along it
Sequence of IL-18 polypeptide SEQ ID NO: 60 (E6K, C38Q, K53A) (human) (Q14116 other isoform, or with tags, fused parts or gaps C38Q K53A C38Q K53A): as the sequence (Q14116 other isoform, or with tags, fused parts or gaps C38A K53A C68A D98C C38A K53A C68A D98C) above, with A38Q, A68C, C98D counted along it
Sequence of C163 (V11I, C38A, C76A, Q103K, C127A) (human) (Q14116 37-193 V47I/C74A/C112A/Q139K/C163A): as the sequence (Q14116 other isoform, or with tags, fused parts or gaps C38A K53A C68A D98C C38A K53A C68A D98C) above, with K6E, V11I, A53K, A68C, C76A, C98D, Q103K, C127A counted along it
Sequence of C157 (V11I, C38A, K53A, C76A, C127A, D132A) (human) (Q14116 37-193 V47I/C74A/K89A/C112A/C163A/D168A): as the sequence (Q14116 other isoform, or with tags, fused parts or gaps C38A K53A C68A D98C C38A K53A C68A D98C) above, with K6E, V11I, A68C, C76A, C98D, C127A, D132A counted along it
Sequence of IL-18 polypeptide SEQ ID NO: 47 (C38S, C68S, C76S, C127S) (human) (Q14116 37-193 C74S/C104S/C112S/C163S): as the sequence (Q14116 other isoform, or with tags, fused parts or gaps C38A K53A C68A D98C C38A K53A C68A D98C) above, with K6E, A38S, A53K, A68S, C76S, C98D, C127S counted along it
Sequence of C151 (V11I, D35A, C38A, K53A, C76A, C127A) (human) (Q14116 37-193 V47I/D71A/C74A/K89A/C112A/C163A): as the sequence (Q14116 other isoform, or with tags, fused parts or gaps C38A K53A C68A D98C C38A K53A C68A D98C) above, with K6E, V11I, D35A, A68C, C76A, C98D, C127A counted along it
Sequence of IL-18 polypeptide SEQ ID NO: 59 (E6K, C38A, K53A) (human) (Q14116 other isoform, or with tags, fused parts or gaps C38A K53A C38A K53A): as the sequence (Q14116 other isoform, or with tags, fused parts or gaps C38A K53A C68A D98C C38A K53A C68A D98C) above, with A68C, C98D counted along it
Sequence of IL-18 polypeptide SEQ ID NO: 46 (E06K, K53A, S55A, M51G) (human) (Q14116 37-193 E42K/M87G/K89A/S91A): as the sequence (Q14116 other isoform, or with tags, fused parts or gaps C38A K53A C68A D98C C38A K53A C68A D98C) above, with A38C, M51G, S55A, A68C, C98D counted along it
Sequence of IL-18 polypeptide SEQ ID NO: 55 (K53A, T63A, C38S, C68S, C76S, C127S, K70C) (human) (Q14116 37-193 C74S/K89A/T99A/C104S/K106C/C112S/C163S): as the sequence (Q14116 other isoform, or with tags, fused parts or gaps C38A K53A C68A D98C C38A K53A C68A D98C) above, with K6E, A38S, T63A, A68S, K70C, C76S, C98D, C127S counted along it
Sequence of C145 (V11I, C38A, K53A, S55A, C76A, C127A) (human) (Q14116 37-193 V47I/C74A/K89A/S91A/C112A/C163A): as the sequence (Q14116 other isoform, or with tags, fused parts or gaps C38A K53A C68A D98C C38A K53A C68A D98C) above, with K6E, V11I, S55A, A68C, C76A, C98D, C127A counted along it
Sequence of IL-18 polypeptide SEQ ID NO: 50 (E06K, K53A, T63A) (human) (Q14116 37-193 E42K/K89A/T99A): as the sequence (Q14116 other isoform, or with tags, fused parts or gaps C38A K53A C68A D98C C38A K53A C68A D98C) above, with A38C, T63A, A68C, C98D counted along it
Sequence of IL-18 polypeptide SEQ ID NO: 38 (E06K) (human) (Q14116 37-193 E42K): as the sequence (Q14116 other isoform, or with tags, fused parts or gaps C38A K53A C68A D98C C38A K53A C68A D98C) above, with A38C, A53K, A68C, C98D counted along it
Sequence of C168 (V11I, C38A, C76A, S105K, C127A) (human) (Q14116 37-193 V47I/C74A/C112A/S141K/C163A): as the sequence (Q14116 other isoform, or with tags, fused parts or gaps C38A K53A C68A D98C C38A K53A C68A D98C) above, with K6E, V11I, A53K, A68C, C76A, C98D, S105K, C127A counted along it
Sequence of C086 (SEQ ID NO: 30; E6K, V11I, C38A, K53A, T63A, C76A, C127A) (human) (Q14116 other isoform, or with tags, fused parts or gaps with the stated changes): as the sequence (Q14116 other isoform, or with tags, fused parts or gaps C38A K53A C68A D98C C38A K53A C68A D98C) above, with V11I, T63A, A68C, C76A, C98D, C127A counted along it
Sequence of IL-18 polypeptide SEQ ID NO: 57 (E6K, C38S, K53A) (human) (Q14116 other isoform, or with tags, fused parts or gaps C38S K53A C38S K53A): as the sequence (Q14116 other isoform, or with tags, fused parts or gaps C38A K53A C68A D98C C38A K53A C68A D98C) above, with A38S, A68C, C98D counted along it
Sequence of IL-18 polypeptide SEQ ID NO: 39 (E06K, K53A) (human) (Q14116 37-193 E42K/K89A): as the sequence (Q14116 other isoform, or with tags, fused parts or gaps C38A K53A C68A D98C C38A K53A C68A D98C) above, with A38C, A68C, C98D counted along it
Sequence of IL-18 polypeptide SEQ ID NO: 6 (E6K, V11I, C38A, K53A, T63A, C68A, C76A, D98C, C127A) (human) (Q14116 other isoform, or with tags, fused parts or gaps with the stated changes): as the sequence (Q14116 other isoform, or with tags, fused parts or gaps C38A K53A C68A D98C C38A K53A C68A D98C) above, with V11I, T63A, C76A, C127A counted along it
Sequence of IL-18 polypeptide SEQ ID NO: 36 (K53A) (human) (Q14116 37-193 K89A): as the sequence (Q14116 other isoform, or with tags, fused parts or gaps C38A K53A C68A D98C C38A K53A C68A D98C) above, with K6E, A38C, A68C, C98D counted along it
Sequence of C158 (V11I, C38A, K53A, C76A, G108A, C127A) (human) (Q14116 37-193 V47I/C74A/K89A/C112A/G144A/C163A): as the sequence (Q14116 other isoform, or with tags, fused parts or gaps C38A K53A C68A D98C C38A K53A C68A D98C) above, with K6E, V11I, A68C, C76A, C98D, G108A, C127A counted along it

## Fc-fused human IL-18 binding protein isoform a (IL-18BPa) (from UniProt O95998 31-194) (Fc fusion)
[1]
  IC50 (nM), IL-18BPa inhibition of IFNγ induction, NK-92 cells: 284 nM
[2]
  IC50 (nM), IL-18BPa inhibition of IFNγ induction, NK-92 cells: 2.22 nM
[3]
  IC50 (nM), IL-18BPa inhibition of IFNγ induction, NK-92 cells: 961 nM
[4]
  IC50 (nM), IL-18BPa inhibition of IFNγ induction, NK-92 cells: 21.3 nM
[5]
  IC50 (nM), IL-18BPa inhibition of IFNγ induction, NK-92 cells: 0.189 nM
[6]
  IC50 (nM), IL-18BPa inhibition of IFNγ induction, NK-92 cells: 5.05 nM
[7]
  IC50 (nM), IL-18BPa inhibition of IFNγ induction, NK-92 cells: 5.85 nM
[8]
  IC50 (nM), IL-18BPa inhibition of IFNγ induction, NK-92 cells: > 1000 nM
[9]
  IC50 (nM), IL-18BPa inhibition of IFNγ induction, NK-92 cells: 23.5 nM
[10]
  IC50 (nM), IL-18BPa inhibition of IFNγ induction, NK-92 cells: 15 nM
[11]
  IC50 (nM), IL-18BPa inhibition of IFNγ induction, NK-92 cells: 1060 nM
[12]
  IC50 (nM), IL-18BPa inhibition of IFNγ induction, NK-92 cells: 7.29 nM
[13]
  IC50 (nM), IL-18BPa inhibition of IFNγ induction, NK-92 cells: 10.2 nM
[14]
  IC50 (nM), IL-18BPa inhibition of IFNγ induction, NK-92 cells: 0.456 nM
[15]
  IC50 (nM), IL-18BPa inhibition of IFNγ induction, NK-92 cells: 18.2 nM
[16]
  IC50 (nM), IL-18BPa inhibition of IFNγ induction, NK-92 cells: 7.85 nM
[17]
  IC50 (nM), IL-18BPa inhibition of IFNγ induction, NK-92 cells: 1.81 nM
[18]
  IC50 (nM), IL-18BPa inhibition of IFNγ induction, NK-92 cells: 0.809 nM
[19]
  IC50 (nM), IL-18BPa inhibition of IFNγ induction, NK-92 cells: > 703 nM
[20]
  IC50 (nM), IL-18BPa inhibition of IFNγ induction, NK-92 cells: 3.71 nM
[21]
  IC50 (nM), IL-18BPa inhibition of IFNγ induction, NK-92 cells: 733 nM
[22]
  IC50 (nM), IL-18BPa inhibition of IFNγ induction, NK-92 cells: 27.3 nM
[23]
  IC50 (nM), IL-18BPa inhibition of IFNγ induction, NK-92 cells: 3.98 nM
[24]
  IC50 (nM), IL-18BPa inhibition of IFNγ induction, NK-92 cells: 1.07 nM
[25]
  IC50 (nM), IL-18BPa inhibition of IFNγ induction, NK-92 cells: 229 nM
[26]
  IC50 (nM), IL-18BPa inhibition of IFNγ induction, NK-92 cells: > 1000 nM
[27]
  IC50 (nM), IL-18BPa inhibition of IFNγ induction, NK-92 cells: 654 nM
[28]
  IC50 (nM), IL-18BPa inhibition of IFNγ induction, NK-92 cells: 7.79 nM
[29]
  IC50 (nM), IL-18BPa inhibition of IFNγ induction, NK-92 cells: 146 nM
[30]
  IC50 (nM), IL-18BPa inhibition of IFNγ induction, NK-92 cells: 0.444 nM
[31]
  IC50 (nM), IL-18BPa inhibition of IFNγ induction, NK-92 cells: 1.62 nM
[32]
  IC50 (nM), IL-18BPa inhibition of IFNγ induction, NK-92 cells: 3.18 nM
[33]
  IC50 (nM), IL-18BPa inhibition of IFNγ induction, NK-92 cells: 5.85 nM
[34]
  IC50 (nM), IL-18BPa inhibition of IFNγ induction, NK-92 cells: 62.4 nM
[35]
  IC50 (read off the curve), inhibition of IFNg production by NK-92 cells: 1 to 2 nM
